From paper doi:10.1101/426809 come the findings set out here.

Data set [1] addresses HupA-HaloTag (HupA fused through a GS linker to HaloTag with a C-terminal 6xHis tag) (Clostridium difficile 630Δerm). The experiment in a line: cross-linking.
Data set [2] addresses HupA-LgBiT (HupA fused to the large subunit of the bitLuc^opt split luciferase) (Clostridium difficile 630Δerm). The experiment in a line: split reporter.
The target of data set [3] is HupA_(6xHis), C. difficile HupA (CD3496) with a 6x histidine tag (Clostridium difficile 630Δerm). Put plainly: cross-linking.
Data set [4] has the same target. The experiment in a line: cross-linking. This is another data set of the same source.
The next data set addresses T1, HupAQED6xHis (Clostridium difficile 630Δerm, UniProt Q180Z4 1-92, R55Q;R58E;R61D).
T1 sequence: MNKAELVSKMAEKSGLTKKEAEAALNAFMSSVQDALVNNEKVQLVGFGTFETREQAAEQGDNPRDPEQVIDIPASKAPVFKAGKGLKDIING
The experiment in a line: EMSA. In general terms: A gel shift assay detects complexes by their altered migration in electrophoresis.

Like-named read-outs stand apart in the source and are kept apart here.

What is called stoichiometry N is a count of units in the complex or per binding partner. In data set [1], “HupA-HaloTag (HupA fused through a GS linker to HaloTag with a C-terminal 6xHis tag) (natural protein)” had a stoichiometry N of 2.
Take “HupA-SmBiT (HupA fused to the small subunit of the bitLuc^opt split luciferase) (natural protein)”: the luciferase activity (LU/OD) after 1 h of induction in data set [2] was 265000 LU/OD.
Turning to “HupA_(6xHis), C. difficile HupA (CD3496) with a 6x histidine tag (natural protein)”, the stoichiometry N in data set [3] and in data set [4] was 2 in each case.

B1: oAF65/oAF66, 28.9% G+C (dsDNA)
DNA 1: CATTAAGTATGAGTATTCTATGTATAGATCATTGATGC
DNA 2: GCATCAATGATCTATACATAGAATACTCATACTTAATG
As for B1, the binding result with HupAQED6xHis is on record as “no binding”.

B2: oAF63/oAF64, 52.6% G+C (dsDNA)
DNA 1: CATCAGGCAAGAGTAGTCACTGTGTAGCTCGTGGATGC
DNA 2: GCATCCACGAGCTACACAGTGACTACTCTTGCCTGATG
For the molecule B2, the binding result with HupAQED6xHis is listed as “no binding”.

B3: oAF61/oAF62, 71.1% G+C (dsDNA)
DNA 1: CGCCAGGCCAGGGCTGTCACTGTGCAGCTCGTGGACGC
DNA 2: GCGTCCACGAGCTGCACAGTGACAGCCCTGGCCTGGCG
In the case of B3, the binding result with HupAQED6xHis is listed as “no binding”.
